The Human Domainome abundance scans (Beltran et al. 2025)

B1: Retinoic acid receptor RXR-alpha, residues 132 to 208; numbered along this chain, P19793 (parent)
chain: KHICAICGDRSSGKHYGVYSCEGCKGFFKRTVRKDLTYTCRDNKDCLIDKRQRNRCQYCRYQKCLAMGMKREAVQEE

Variants of: B1
Test: abundance fitness (aPCA) (normalised: wild type 0, dead -1); higher = more abundant; growth selection in yeast, the domain comes from the species named
Conditions: Homo sapiens

Abundance fitness: each site, then its substitutions
C46: D -0.035, A -0.142, L -0.378, F -0.291, P -0.155, V -0.193, Q -0.288, S -0.274, G -0.186, N -0.22, Y -0.383, I -0.436, K -0.207, R -0.301, M -0.206, E -0.189
Y38: W -0.086, P 0.04, F 0.078, D -0.115, L 0.012, T 0.036, N -0.101, V 0.001, I -0.041, R -0.11, H 0.027, S -0.031, C -0.353, Q -0.041, A -0.061, E -0.063
C40: G -0.815, R -0.659, Q -0.707, W -0.832, V -0.737, L -0.454, D -0.314, A -0.602, E -0.405, N -0.732, H -0.09, K -0.504, T -0.643, I -0.697, M -0.621, P -0.591
T39: V 0.05, G 0.045, S 0.03, Y 0.006, Q -0.033, I 0.099, K 0.027, N 0.03, M 0.046, H 0.134, R 0.008, A -0.015, L -0.052, C 0.04, P 0.027, W -0.009, E 0.048, D 0.045
D49: H -0.011, N 0.048, I 0.069, V 0.036, G 0.07, S -0.037, E -0.005, F -0.109, Q 0.036, R -0.183, K 0.026, C -0.117, L -0.102, A 0.009, P -0.018, W 0.06, Y -0.183, T -0.07
N54: Y -0.061, H 0.117, S -0.167, D -0.128
R51: L 0.022, S 0.017, G 0.015, T 0.022, I -0.001, C -0.053, Q -0.015, A 0.007, M -0.025, E -0.005, K 0.082, V -0.035, H -0.052, N -0.071, D -0.073, P 0.045, W -0.038
L65: A -0.038, I -0.132, C 0.044, G -0.148, H -0.078, D -0.133, F -0.036
Q57: G 0.03, E -0.045, I -0.167, N -0.052, W -0.026, R 0.003, P 0.032, K -0.113, L -0.016, Y -0.065, V -0.04, D 0.05, T -0.065, C -0.037
C64: Y -0.421
N43: T 0.049, A 0.008, M 0.02, W -0.008, H 0.066, V 0.013, L -0.009, P -0.065, S 0.019, F -0.071, C -0.115, K 0.1, R -0.003, Y -0.043, E 0.053, Q -0.099, I 0.019, G 0.053, D -0.181
D45: S -0.029, I -0.123, V -0.021, K 0.058, N -0.034, M -0.404, Y -0.062, R 0.001, T -0.051, H -0.066, W -0.025, P -0.078, L -0.062, E 0.043, F -0.104, C -0.049
L36: T -0.028, W -0.028, R 0.008, Y -0.055, V 0.009
Y58: S 0, C -0.066, E 0.043, V -0.311, M -0.062, R -0.032, K 0.024, N -0.087, F -0.02, T -0.328, I -0.551, A -0.007, G -0.028, H 0.09, D 0.045, P -0.294
D42: G 0.091, N 0.02
K50: G 0.015, H -0.029, W -0.107, E -0.077, Q 0.047, F -0.008, C -0.153, R -0.026, A 0.037, M 0.043, V 0.052, T -0.099, P -0.029, S -0.108, Y -0.092, I -0.026, N 0.124, D 0.019
C59: L -0.911, W -0.427, G -0.861, A -0.748, T -0.651, H -0.066, I -0.977, M -1.08, D -0.647, V -0.915, R -0.955, P -0.753, N -1.13, S -0.657, F -1.05, K -1.05, E -0.59, Y -0.418
L47: R -0.109, Q -0.095, M -0.048, V -0.008, G 0.016, K -0.062, P -0.045, E 0.004, A 0.005, F 0.011, T 0.012, S -0.122, N -0.098, W 0.005, H -0.016, D -0.072, Y -0.03, I -0.002
K44: P -0.022, V -0.035, A 0.001, R -0.019, L -0.083, F -0.024, S -0.011, T 0.057, E -0.033, Q -0.04, N 0.025, I 0.05, M -0.03, H -0.086, Y -0.119, D 0.092, G 0.052, C -0.025
I48: A -0.05, T 0, E -0.162, N 0.065, D -0.031, H 0.061, Y -0.342, W 0.007, Q 0.21, V 0.051, S -0.04, L 0.016, F -0.108, G -0.007, C -0.035, P -0.007, K 0.094, R -0.02, M 0.03
T37: E 0.052, S -0.025, I -0.016, R -0.039, D 0.082, C 0.074, L -0.05, G 0.047, Y -0.082, W -0.051, V 0.035, K 0.066, F -0.046, H 0.053, A 0.026, P 0.064, M -0.147, Q 0.059, N 0.001
R41: T 0.035, P 0.059, V -0.01, L -0.091, H 0.06, C 0.096, I 0.041, D 0.056, E 0.14, Q 0.041, W -0.007, Y -0.002, K 0.026, N -0.05, F 0.032, G 0.095, M 0.018
Y61: C -0.06, N 0.101, H -0.08
C56: S -0.293, Y -0.431
R53: Q -0.028, N 0.03, L -0.041, I 0.014, E 0.061, C -0.063, D 0.002, Y 0.007, W 0.006, S -0.076, T 0.063, H 0.015, P 0.027, F -0.044, M -0.065, G -0.009, A -0.008
